Results taken from the supplement of paper PMC7877785.
± gives the uncertainty stated by the source.

Test: self-splicing fitness, log relative to wild type (ln ratio); higher = more splicing; Tetrahymena group I intron in knt gene, E. coli kanamycin selection, DiMSum; sequences stand for … in CUCUCU…GGAGGGAAAAGUUAUCAGGCAUGCACCUGGUAGCUAGUCUUUAAACCAAUAGAUUGCAUCGGUUUAAAAGGCAAGACCGUCAAAUUGCGGGAAAGGGGUCAACAGCCGUUCAGUACCAAGUCUCAGGGGAAACUUUGAGAUGGCCUUGCAAAGGGUAUGGUAAUAAGCUGACGGACAUGGUCCUAACCACGCAGCCAAGUCCUAAGUCAACAGAUCUUCUGUUGAUAUGGAUGCAGUUCACAGACUAAAUGUCGGUCGGGGAAGAUGUAUUCUUCUCAUAAGAUAUAGUCGGACCUCUCCUUAAUGGGAGCUAGCGGAUGAAGUGAUGCAACACUGGAGCCGCUGGGAACUAAUUUGUAUGCGAAAGUAUAUUGAUUAGUUUUGGAGUACUCGUGGUCG
How it was run: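 Six replicate transformations of E. coli BL21(DE3) with a pET-22b(+) library were grown overnight at 37°C or 30°C. The library randomised all eight P1ex-region intron nucleotides, the intron lying in the knt kanamycin-resistance gene, and plates were LB agar with or without 25 μg/mL kanamycin plus 100 μg/mL carbenicillin, 50 μM IPTG and 0.2% rhamnose. Pooled colonies were amplicon-sequenced on an Illumina HiSeq 2500, and fitness is the DiMSum error-weighted combination of wild-type-normalised replicate fold changes, kanamycin versus none.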

Row | Sequence | self-splicing fitness (ln) (30 °C) | self-splicing fitness (ln) (37 °C)
1 | GCCAAGCAAUAUUACGGGUC | -3.34 ± 0.18 | -2.8 ± 0.27
2 | GCGCAGCAAUAUUACGCAUU | -1.4 ± 0.077 | -0.154 ± 0.1
3 | GUAAAGCAAUAUUACGACCA | -0.123 ± 0.093 | 0.27 ± 0.13
4 | GUAAAGCAAUAUUACGCGUU | -1.65 ± 0.088 | -0.906 ± 0.099
5 | UAAGAGCAAUAUUACGGUAC | – | -2.25 ± 0.41
6 | AUAUAGCAAUAUUACGCGCU | 0.0604 ± 0.24 | -0.878 ± 0.38
7 | UGUUAGCAAUAUUACGCUCA | 0.179 ± 0.19 | -0.292 ± 0.18
8 | AUACAGCAAUAUUACGACGA | -1.84 ± 0.13 | -0.966 ± 0.13
9 | AAAAAGCAAUAUUACGCCAU | -2.87 ± 0.22 | -1.71 ± 0.24
10 | ACACAGCAAUAUUACGUUUG | -2.67 ± 0.067 | -1.59 ± 0.081
11 | UUCCAGCAAUAUUACGCCAU | -3.3 ± 0.19 | -2.82 ± 0.25
12 | GCUCAGCAAUAUUACGCACU | 0.181 ± 0.11 | 0.213 ± 0.14
13 | AUGUAGCAAUAUUACGGGAU | -1.9 ± 0.12 | -1.33 ± 0.2
14 | UCCCAGCAAUAUUACGCCUG | -3.13 ± 0.26 | -1.8 ± 0.23
15 | UGCUAGCAAUAUUACGCCAG | – | -2.17 ± 0.39
16 | UAAAAGCAAUAUUACGUAUU | -2.24 ± 0.14 | -1.88 ± 0.19
17 | UCCAAGCAAUAUUACGGAAU | -3.72 ± 0.3 | -2.97 ± 0.33
18 | CGAAAGCAAUAUUACGGUCG | -2.88 ± 0.15 | -2.19 ± 0.16
19 | ACACAGCAAUAUUACGCCAG | -2.45 ± 0.1 | -1.13 ± 0.13
20 | CCAAAGCAAUAUUACGGUCA | -3.54 ± 0.35 | -1.78 ± 0.25

Row | Sequence | self-splicing fitness (ln) (30 °C) | self-splicing fitness (ln) (37 °C)
21 | GAACAGCAAUAUUACGCAGA | -2.1 ± 0.14 | -1.66 ± 0.12
22 | CAAUAGCAAUAUUACGGAAG | -1.36 ± 0.074 | -0.459 ± 0.09
23 | ACCUAGCAAUAUUACGAUCC | -2.35 ± 0.17 | -1.15 ± 0.2
24 | UGUCAGCAAUAUUACGGGGG | -2.6 ± 0.14 | -1.64 ± 0.15
25 | GUUCAGCAAUAUUACGCUAU | -1.32 ± 0.081 | -0.451 ± 0.092
26 | UACAAGCAAUAUUACGAACA | -1.14 ± 0.11 | -0.734 ± 0.097
27 | UGAUAGCAAUAUUACGAGUA | -1.71 ± 0.16 | -1.23 ± 0.13
28 | GCCAAGCAAUAUUACGGACA | -1.12 ± 0.11 | 0.31 ± 0.093
29 | AGCCAGCAAUAUUACGGCCC | – | -0.0646 ± 0.48
30 | AUAUAGCAAUAUUACGAUUC | -1.29 ± 0.19 | -0.0451 ± 0.23
31 | GGUUAGCAAUAUUACGGGGG | – | -2.37 ± 0.44
32 | GAUUAGCAAUAUUACGUAUA | -2.65 ± 0.22 | -0.643 ± 0.19
33 | UUACAGCAAUAUUACGAUGA | -0.445 ± 0.06 | 0.596 ± 0.078
34 | GUCGAGCAAUAUUACGGUGC | -2.4 ± 0.16 | -0.222 ± 0.13
35 | CCAUAGCAAUAUUACGCUUA | -2.56 ± 0.26 | -3.5 ± 0.33
36 | GCCGAGCAAUAUUACGUGAA | -1.74 ± 0.076 | -0.417 ± 0.092
37 | GCAAAGCAAUAUUACGGGGA | -2.9 ± 0.16 | -1.99 ± 0.15
38 | GAAUAGCAAUAUUACGUUUU | -3.38 ± 0.16 | -0.859 ± 0.11
39 | GCCUAGCAAUAUUACGUGGC | -3.15 ± 0.32 | -1.6 ± 0.33
